Residue numbers refer to the chain shown, from its start.
T1: human B7H3 (CD276) on the cell surface (human, UniProt Q5ZPR3 29-534)
T1 construct: B7H3 on A375 and other B7H3-positive or transfected cells
T1 sequence: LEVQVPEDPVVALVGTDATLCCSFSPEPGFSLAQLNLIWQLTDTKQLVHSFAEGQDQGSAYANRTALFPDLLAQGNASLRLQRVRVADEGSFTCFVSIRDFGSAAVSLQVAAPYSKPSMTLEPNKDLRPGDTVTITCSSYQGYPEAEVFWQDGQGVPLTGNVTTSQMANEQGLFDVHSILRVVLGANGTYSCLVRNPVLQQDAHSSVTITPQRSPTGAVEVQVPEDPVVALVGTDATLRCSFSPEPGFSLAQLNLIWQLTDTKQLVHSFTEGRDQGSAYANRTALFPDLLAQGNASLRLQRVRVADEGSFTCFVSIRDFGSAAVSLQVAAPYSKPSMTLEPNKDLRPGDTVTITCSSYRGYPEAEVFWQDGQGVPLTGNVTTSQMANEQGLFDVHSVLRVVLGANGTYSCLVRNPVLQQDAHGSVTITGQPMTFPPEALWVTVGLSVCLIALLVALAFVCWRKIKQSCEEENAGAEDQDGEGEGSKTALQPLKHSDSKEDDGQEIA

B1: cx3072 (bispecific antibody)
chain 1: EVQLVESGGGEVQPGGSLRLSCAASGSTFSSYHMSWFRQAPGKQREPVATSHHGGTTNYAGSVKGRFTISRDNAKNTVYLQMNTLRAEDTAVYYCKADHGYQGRGYWGQGTLVTVKPPGGGGDKTHTCPPCPAPELLGGPSVFLFPPKPKDTLMISRTPEVTCVVVDVSHEDPEVKFNWYVDGVEVHNAKTKPREEQYNSTYRVVSVLTVLHQDWLNGKEYKCKVSNKALPAPIEKTISKAKGQPREPQVYTLPPCRDELTKNQVSLWCLVKGFYPSDIAVEWESNGQPENNYKTTPPVLDSDGSFFLYSKLTVDKSRWQQGNVFSCSVMHEALHNHYTQKSLSLSPTGGGGGSGGGGGSGGGGGSEVQLVESGGGLVQPGGSLRLSCAASGFTFNTYAMNWVRQAPGKCLEWVARIRSKYNNYATYYADSVKGRFTISRDDAKNTLYLQMSSLRAEDTAVYYCVRHGNFGNSYVSWFAYWGQGTLVTVKPGGGGEVQLVESGGGEVQPGGSLRLSCAPSERTFSTYTMGWFRQAPGKEREFVAVVNWGGGSKYYAESVKGRFTISRDNAKNTVYLQMSSLRAEDTAVYYCAAGGAYSGPYYDTRQYTYWGQGTLVTVKP
chain 2: not shown
notes: IgG1-Hole 294, 298 or 446; VH13 237; VL10 265)
B2: cx4136 (bispecific antibody)
chain 1: EVQLVESGGGEVQPGGSLRLSCAASGSTFSSYHMSWFRQAPGKQREPVATSHHGGTTNYAGSVKGRFTISRDNAKNTVYLQMNTLRAEDTAVYYCKADHGYQGRGYWGQGTLVTVKPDKTHTCPPCPAPGGPSVFLFPPKPKDTLMISRTPEVTCVVVDVSHEDPEVKFNWYVDGVEVHNAKTKPREEQYNSTYRVVSVLTVLHQDWLNGKEYKCKVSNKALPAPIEKTISKAKGQPREPQVYTLPPCRDELTKNQVSLWCLVKGFYPSDIAVEWESNGQPENNYKTTPPVLDSDGSFFLYSKLTVDKSRWQQGNVFSCSVMHEALHNHYTQKSLSLSPTGGGGGSGGGGGSGGGGGSEVQLVESGGGLVQPGGSLRLSCAASGFTFNTYAMNWVRQAPGKCLEWVARIRSKYNNYATYYADSVKGRFTISRDDAKNTLYLQMSSLRAEDTAVYYCVRHGNFGNSYVSWFAYWGQGTLVTVKPEVQLVESGGGEVQPGGSLRLSCAASGSTFSSYHMSWFRQAPGKQREPVATSHHGGTTNYAGSVKGRFTISRDNAKNTVYLQMNTLRAEDTAVYYCKADHGYQGRGYWGQGTLVTVKP
chain 2: DKTHTCPPCPAPGGPSVFLFPPKPKDTLMISRTPEVTCVVVDVSHEDPEVKFNWYVDGVEVHNAKTKPREEQYNSTYRVVSVLTVLHQDWLNGKEYKCKVSNKALPAPIEKTISKAKGQPREPQVCTLPPSRDELTKNQVSLSCAVKGFYPSDIAVEWESNGQPENNYKTTPPVLDSDGSFFLVSKLTVDKSRWQQGNVFSCSVMHEALHNRYTQKSLSLSPTGGGGGSGGGGGSGGGGGSQAVVTQEPSLTVSPGGTVTLTCGSSTGAVTTSNYANWVQQKPGQAFRGLIGGTNKRAPGVPARFSGSLLGGKAALTISGAQPEDEADYYCALWYSNHWVFGCGTKLTVL
B3: cx4137 (bispecific antibody)
chain 1: B2 chain 1
chain 2: DKTHTCPPCPAPGGPSVFLFPPKPKDTLMISRTPEVTCVVVDVSHEDPEVKFNWYVDGVEVHNAKTKPREEQYNSTYRVVSVLTVLHQDWLNGKEYKCKVSNKALPAPIEKTISKAKGQPREPQVCTLPPSRDELTKNQVSLSCAVKGFYPSDIAVEWESNGQPENNYKTTPPVLDSDGSFFLVSKLTVDKSRWQQGNVFSCSVMHEALHNRYTQKSLSLSPTGGGGGSGGGGGSGGGGGSQAVVTQEPSLTVSPGGTVTLTCGSSTGAVTTSNYANWVQQKPGQAFRGLIGGTNKRAPGVPARFSGSLLGGKAALTISGAQPEDEADYYCALWYSNHWVFGCGTKLTVLEVQLLESGGGEVQPGGSLRLSCAASGFSFSINAMGWYRQAPGKRREFVAAIESGRNTVYAESVKGRFTISRDNAKNTVYLQMSSLRAEDTAVYYCGLLKGNRVVSPSVAYWGQGTLVTVKP
notes: chain 2 ends in the 4-1BB sdAb RH3v5-1
B4: cx4641 (bispecific antibody)
chain 1: EVQLVESGGGEVQPGGSLRLSCAASGSTFSSYHMSWFRQAPGKQREPVATSHHGGTTNYAGSVKGRFTISRDNAKNTVYLQMNTLRAEDTAVYYCKADHGYQGRGYWGQGTLVTVKPDKTHTCPPCPAPGGPSVFLFPPKPKDTLMISRTPEVTCVVVDVSHEDPEVKFNWYVDGVEVHNAKTKPREEQYNSTYRVVSVLTVLHQDWLNGKEYKCKVSNKALPAPIEKTISKAKGQPREPQVYTLPPCRDELTKNQVSLWCLVKGFYPSDIAVEWESNGQPENNYKTTPPVLDSDGSFFLYSKLTVDKSRWQQGNVFSCSVMHEALHNHYTQKSLSLSPTGGSGGGGIEPDIGGSGGSEVQLVESGGGLVQPGGSLRLSCAASGFTFNTYAMNWVRQAPGKCLEWVARIRSKYNNYATYYADSVKGRFTISRDDAKNTLYLQMSSLRAEDTAVYYCVRHGNFGNSYVSWFAYWGQGTLVTVKPQLQLQESGGGLVQAGDSLRLSCAASGFSFGSNVMMWVRQAPGKGPEWVSTIYSSGTGTFYADSVKGRFTISRNNAKNTLYLQMNSLKPDDTAVYYCATSGPVRGWGPRSQGTLVTVKP
chain 2: B2 chain 2 with G226S, S229G, G231I, G232E, G233P, G234D, S235I, G238S
notes: Printed composition is the same as cx4645
B5: cx3090 (bispecific antibody, not shown: a dimerising Fc or GST)
chain 1: EVQLVESGGGEVQPGGSLRLSCAASGSTFSSYHMSWFRQAPGKQREPVATSHHGGTTNYAGSVKGRFTISRDNAKNTVYLQMNTLRAEDTAVYYCKADHGYQGRGYWGQGTLVTVKPGGSGGGGIEPDIGGSGGSEVQLVESGGGLVQPGGSLRLSCAASGFTFNTYAMNWVRQAPGKCLEWVARIRSKYNNYATYYADSVKGRFTISRDDAKNTLYLQMSSLRAEDTAVYYCVRHGNFGNSYVSWFAYWGQGTLVTVKPEVQLVESGGGEVQPGGSLRLSCAPSERTFSTYTMGWFRQAPGKEREFVAVVNWGGGSKYYAESVKGRFTISRDNAKNTVYLQMSSLRAEDTAVYYCAAGGAYSGPYYDTRQYTYWGQGTLVTVKP
chain 2: GGSGGGGIEPDIGGSGGSQAVVTQEPSLTVSPGGTVTLTCGSSTGAVTTSNYANWVQQKPGQAFRGLIGGTNKRAPGVPARFSGSLLGGKAALTISGAQPEDEADYYCALWYSNHWVFGCGTKLTVLEVQLLESGGGEVQPGGSLRLSCAASGFSFSINAMGWYRQAPGKRREFVAAIESGRNTVYAESVKGRFTISRDNAKNTVYLQMSSLRAEDTAVYYCGLLKGNRVVSPSVAYWGQGTLVTVKP
notes: as for B3
B6: cx3243 (bispecific antibody, not shown: a dimerising Fc or GST)
chain 1: B5 chain 1 with S120G, G123S, I125G, E126G, P127G, D128G, I129S, S132G
chain 2: B5 chain 2 with S3G, G6S, I8G, E9G, P10G, D11G, I12S, S15G
notes: as for B3
B7: cx3855 (bispecific antibody)
chain 1: B2 chain 1 with G343S, S346G, G348I, G349E, G350P, G351D, S352I, G355S
chain 2: B3 chain 2 with G226S, S229G, G231I, G232E, G233P, G234D, S235I, G238S
notes: chain 2 ends in the 4-1BB sdAb RH3v5-1; Printed composition is the same as cx4904

Experiments:
[1] = target: T1, human B7H3 (CD276) on the cell surface; experiment: flow cytometry titration on A375 cells (B7H3+); column head 'Affinity B7H3' (apparent)
Description: (§1) Binding of exemplary B7H3-targeting constrained CD3 engaging constructs set forth in Table E3 to CD3 on the surface of primary T cells or B7H3-expressing cells (A375) was assessed by flow cytometry. The T cells were primary T-cells that were negatively enriched from PBMCs isolated from healthy human donor peripheral blood leukopaks. Bound construct was detected with fluorophore-conjugated secondary antibodies specific for the human Fc (anti-human IgG APC secondary antibody) and binding was measured by flow cytometry. Cells incubated with secondary antibody only served as negative controls. Binding was compared to Dual-affinity Re-targeting Antibody (DART)-monomeric Fc format targeting B7H3 and CD3 (DART-Fc B7H3xCD3; see e.g. WO2017030926A1).
(§2) Table E4 summarizes the affinity of exemplary molecules for B7H3 or CD3, as determined from flow cytometry, in these studies.

[2] = target: T2, CD3 on the surface of human T cells (human, UniProt P07766 23-207); experiment: flow cytometry on primary human T cells; column head 'Affinity CD3'
T2 construct: whole, on cells; Part of the CD3/TCR complex on cells; also called CD3 epsilon
T2 sequence (P07766 23-207): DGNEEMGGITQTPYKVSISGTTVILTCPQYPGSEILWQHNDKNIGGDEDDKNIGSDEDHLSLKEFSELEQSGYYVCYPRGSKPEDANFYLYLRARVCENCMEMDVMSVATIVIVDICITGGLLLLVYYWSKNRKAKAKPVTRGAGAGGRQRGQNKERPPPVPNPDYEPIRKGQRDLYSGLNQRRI
Description: as §1, §2

Binder | Kd [1] | Kd [2]
B1 | 0.539 nM | > 200 nM
B2 | 0.368 nM | > 200 nM
B3 | 0.375 nM | > 200 nM
B4 | 0.379 nM | > 200 nM
B5 | 0.523 nM | > 200 nM
B6 | 0.477 nM | > 200 nM
B7 | 0.395 nM | > 200 nM
